Paper PMC8395514, “Characterization of Class V DyP-Type Peroxidase SaDyP1 from Streptomyces avermitilis and Evaluation of SaDyPs Expression in Mycelium” (International Journal of Molecular Sciences, 2021)

T1: SaDyP1 (Streptomyces avermitilis, UniProt Q82QF8)
T1 construct: gene SAVERM_549
T1 sequence (Q82QF8 1-442): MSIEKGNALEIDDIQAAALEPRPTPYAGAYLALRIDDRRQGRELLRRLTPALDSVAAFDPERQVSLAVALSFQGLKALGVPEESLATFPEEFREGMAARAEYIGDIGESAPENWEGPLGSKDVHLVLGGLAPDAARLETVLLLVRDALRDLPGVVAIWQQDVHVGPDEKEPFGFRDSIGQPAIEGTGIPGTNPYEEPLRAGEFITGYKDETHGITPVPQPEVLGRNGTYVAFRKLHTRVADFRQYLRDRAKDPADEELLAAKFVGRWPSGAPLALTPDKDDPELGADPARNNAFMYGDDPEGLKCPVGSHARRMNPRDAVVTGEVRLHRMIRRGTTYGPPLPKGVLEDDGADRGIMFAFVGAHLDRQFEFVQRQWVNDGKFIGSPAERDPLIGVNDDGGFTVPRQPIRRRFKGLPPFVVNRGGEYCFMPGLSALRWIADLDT


Tests used:
SaDyP1 = target: T1, SaDyP1; assay: initial-rate peroxidase assay, absorbance […] nm, Haldane fit; type: biochemical; conditions: 0.20 mM H2O2, 25 mM citrate, pH 4.0 in Table 3 and methods (pH 4.5 in Figure 5 legend), substrate inhibition model; substrate inhibition constant (Haldane)
purified protein [1] = substrate: CCn1c(=NN=c2sc3cc(S(=O)(=O)O)ccc3n2CC)sc2cc(S(=O)(=O)O)ccc21; assay: purified protein; type: biochemical, Streptomyces avermitilis; conditions: 0.20 mM H2O2, 25 mM citrate, pH 4.0 in Table 3 and methods (pH 4.5 in Figure 5 legend), substrate inhibition model
purified protein [2] = substrate: COc1cccc(OC)c1O; assay: purified protein; type: biochemical, Streptomyces avermitilis; conditions: 0.20 mM H2O2, 25 mM citrate, pH 4.0

Ki (SaDyP1) | Molecule | Km (purified protein [1]) | kcat (purified protein [1]) | kcat/Km (purified protein [1]) | Km (purified protein [2]) | kcat (purified protein [2]) | kcat/Km (purified protein [2])
13 mM | CCn1c(=NN=c2sc3cc(S(=O)(=O)O)ccc3n2CC)sc2cc(S(=O)(=O)O)ccc21 [ABTS, 2,2′-azinobis [3-ethylbenzothiazoline-6-sulfonic acid]] | – | – | – | – | – | –
– | SaDyP1 (Streptomyces avermitilis MA-4680 = NBRC 14893) (protein) MSIEKGNALEIDDIQAAALEPRPTPYAGAYLALRIDDRRQGRELLRRLTPALDSVAAFDPERQVSLAVALSFQGLKALGVPEESLATFPEEFREGMAARAEYIGDIGESAPENWEGPLGSKDVHLVLGGLAPDAARLETVLLLVRDALRDLPGVVAIWQQDVHVGPDEKEPFGFRDSIGQPAIEGTGIPGTNPYEEPLRAGEFITGYKDETHGITPVPQPEVLGRNGTYVAFRKLHTRVADFRQYLRDRAKDPADEELLAAKFVGRWPSGAPLALTPDKDDPELGADPARNNAFMYGDDPEGLKCPVGSHARRMNPRDAVVTGEVRLHRMIRRGTTYGPPLPKGVLEDDGADRGIMFAFVGAHLDRQFEFVQRQWVNDGKFIGSPAERDPLIGVNDDGGFTVPRQPIRRRFKGLPPFVVNRGGEYCFMPGLSALRWIADLDT | 1200 µM | 2.8 s⁻¹ | 2400 M⁻¹ s⁻¹ | 610 µM | 0.23 s⁻¹ | 380 M⁻¹ s⁻¹
